Assay results as given in US20150253341A1.

Molecular target: all six recombinant human Tau isoforms
Experiment: immunoaffinity purification on 13A6 beads, trypsin digestion and LC-MS/MS, with against without purification

percent recovery: 60 to 75%
B1: mouse monoclonal anti-Tau antibody clone 13A6 (antibody, V domains shown)
VH: EVQLQQSGAELVRPGASVKLPCTASGFNIKDDYMNWVMQRPERGLEWIGWIDPENGDTAYASKFQGKATMTADTSSNTAYLQLSSLTSEDTAVYYCTSGGRFDYWGQGTSLTVSS
VL: DVLMTQTPLSLPVSLGDQASISCRSSQSIVHSNGSTYLEWYLQKPGQSPKLLIYKVSNRFSGVPDRFSGSGSGTDFTLKINRVEAEDLGVYYCFQGSHVPWTFGGGTKLEIK
